The values below come from paper PMC3828196 (PLoS ONE, 2013).

Data set [1] deals with T1, EcDsbA (Escherichia coli, UniProt P0AEG4).
T1 construct: lacking the periplasmic leader signal were purified as described for KpDsbA; His6-TEV leader (inferred: same procedure as KpDsbA) (N, cleaved yes); made in house; host or cells: E. coli BL21(DE3)pLys (inferred from 'as described for KpDsbA')
Description: biochemical. It is filed as binding, E. coli. Conditions: ITC; range stated for KpDsbA and EcDsbA with […] and […] together; read-out: Kd (range over both peptides and both DsbAs). Here is the method: (§1) Amidation and acetylation ensure that there are no charges on the peptide termini, as these are not present in the native DsbB loop sequence. Binding affinity was measured using a MicroCal™ Auto-iTC200 from (GE Healthcare, USA) at 25 °C. The sample cell was loaded with 200 μL of 100 μM KpDsbA or EcDsbA in 25 mM HEPES, 50 mM NaCl, pH 7.4, and DMSO 0.8 %. The peptide (3 mM) diluted in the same buffer was titrated with an initial injection of 0.5 μL into DsbA, followed by 19 consecutive injections (2.0 μL) offset by 180 s, while the solution was constantly stirred (1000 rpm). Data were fitted to a single-site binding model using MicroCal™ Origin 7.0 software (Origin 7 SR4 v7.0552).

Data set [2] deals with KpDsbA. The data set is described as follows: ITC binding of DsbB-derived peptides to KpDsbA. Also noted: species or system K. pneumoniae. The procedure:
as §1, with “v7.0552). Experiments were conducted in triplicate and affinity and thermodynamic parameters are reported as means and standard deviations (Table 4).” for “v7.0552).”

Data set [3] relates to E. coli dsbA- null (JCB817). Description: Complementation swarming assay, dsbA- null strain JCB817. The note with it: pBAD33, arabinose-induced; soft M63 minimal agar, 37 °C, 3-7 h; biological triplicates.
Description: The ability of KpDsbA to rescue non-motile E. coli dsbA ^- null (JCB817) and dsbA ^-/dsbB ^- double-null (JCB818) strains was assessed in a cell-swarming assay as described previously [16]. The mature KpDsbA coding sequence was cloned into pBAD33 under an arabinose inducible promotor with the EcDsbA periplasmic signal sequence. A wild-type EcDsbA cloned into pBAD33 vector was used as a positive control. Non-motile E. coli dsbA ^- deficient (JCB817) or dsbA ^- / dsbB ^- double-mutant (JCB818) [3] cells (2x10^6) transformed with a KpDsbA or EcDsbA pBAD33 inducible vector were spotted onto the center of a soft M63 minimal agar plate containing 40 mg/mL of each amino acid (except L-cysteine). Plates were incubated at 37 °C and motility of cells monitored using a Molecular Imager® Gel Doc™ system from BIO-RAD (CA 94547, USA) after 3-7 h. Complementation experiments were repeated as biological triplicates.
For data set [4] the following is noted: EcDsbA, cited from earlier work. The text has this: The past 5 years has seen the characterization of DsbA enzymes from many other bacteria including DsbAs with varying degrees of sequence identity to EcDsbA such as Neisseria meningitidis DsbA1 (NmDsbA1, 23% identity), Pseudomonas aerugin ... || EcDsbA and SeDsbA share 86 % sequence identity and both have been characterized previously. […] Both are similarly oxidizing enzymes: the redox potentials of EcDsbA and SeDsbA are -122 and -126 mV, respectively, whereas the range for all DsbAs is -80 to -163 mV (Table 1 ). In b ... || (+ 1 further places)

Data set [5] concerns insulin. The note with it: cited from earlier work.
A short description of data set [6]: In vitro peptide dithiol oxidation (europium fluorescence). It is filed as biochemical. The note with it: samples lacking EcDsbB, DsbA plus peptide; pH 5.5; time-resolved fluorescence. Here is the method:
A peptide ([…]) with a 1,4,7,10-tetraazacyclododecane-1,4,7,10-tetraacetic acid (DOTA) group amide-coupled to the N-terminus, and a methylcoumarin amide-coupled to the ε-amino group of the C-terminal lysine, was purchased from AnaSpec (Fremont, CA). Lyophilized peptide was re-suspended in 100 mM imidazole, pH 6, at a concentration of 2 mM. Europium trifluoromethanesulfonate (Sigma Aldrich, Australia) solution (100 mM) was added to the peptide at a molar ratio of 2:1 and incubated for 5 min at room temperature, to allow europium chelation. The peptide solution was then immediately aliquoted, flash frozen in liquid nitrogen and stored at -80°C. An increase in fluorescence occurs upon oxidation of the peptide cysteines to form a disulfide. Thus, fluorescence can be used to monitor the capacity of DsbA enzymes to catalyse dithiol oxidation.
Assays were conducted using a Synergy H1 multimode plate reader (BioTek, USA) with the excitation wavelength set to 340 nm and emission to 615 nm. A 150 μs delay before reading and 100 μs reading time were used for time-resolved fluorescence. The assay was performed in a white 384-well plate (Perkin Elmer OptiPlate-384, Part #: 6007290). The buffer consisted of 50 mM MES, 50 mM NaCl and 2 mM EDTA at pH 5.5. The reaction consisted of a 50 μL solution in each well, containing 160 nM EcDsbA, KpDsbA or SeDsbA, 1.6 μM EcDsbB (crude membrane extracts, containing ubiquinone) and 8 μM peptide substrate added last to initiate the reaction. Samples containing buffer and DsbA or buffer and peptide were used as controls. Data were measured for three replicates and are presented as mean values, with the standard error of the mean indicated by error bars.

Data set [7] concerns insulin. The data set is described as follows: Insulin disulfide reductase activity. Conditions: 10 μM enzyme, 0.33 mM DTT, 2 mM EDTA, 100 mM phosphate pH 7.0, 0.131 mM insulin; OD650nm turbidity; three repeats. It counts as biochemical. The procedure:
Under mild reducing conditions, DsbA proteins can reduce the intermolecular disulfide bonds formed between insulin chains A and B [3]. The rate of disulfide bond reduction can be spectroscopically followed at OD650nm by an increase in turbidity resulting from production of the insoluble insulin chain B [20]. Samples were prepared in 1 cm cuvettes containing 10 μM of protein (KpDsbA, EcDsbA or EcDsbC), 0.33 mM DTT and 2 mM EDTA in 100 mM NaH2PO4 / Na2HPO4 titrated to pH 7.0. Catalysis was initiated by the addition of 0.131 mM insulin (I0516, Sigma-Aldrich, Australia) to the sample mixture. The assay was repeated three times and data were plotted showing standard deviations.

Entries after “also recorded” stand apart in the source; their conditions may differ. Like-named read-outs stand apart in the source and are kept apart here.

For `CC(=O)N1CCC[C@H]1C(=O)N[C@@H](CO)C(=O)N1CCC[C@H]1C(=O)N[C@@H](Cc1ccccc1)C(=O)N[C@@H](CCC(N)=O)C(=O)N[C@H](C(=O)N[C@@H](CS)C(=O)N[C@@H](CC(=O)O)C(N)=O)[C@@H](C)O`, the Kd was 11 to 18 µM in data set [1]; 16.7 ± 0.6 µM in data set [2] (ITC (Auto-iTC200), cell 100 μM KpDsbA, peptide 3 mM, 25 mM HEPES, 50 mM NaCl, pH 7.4, DMSO 0.8 %, 25 °C in method, 20 °C in table footnote, single-site model, apparent Kd, mean ± SD, three independent experiments, read-out: Kd); 11 to 18 µM in data set [2] (ITC, range stated for KpDsbA and EcDsbA with PSPFATCD and PSPFQTCD together, read-out: Kd (range over both peptides and both DsbAs)).

B1: EcDsbA: Escherichia coli DsbA (CAA56736) (protein)
chain: AQYEDGKQYTTLEKPVAGAPQVLEFFSFFCPHCYQFEEVLHISDNVKKKLPEGVKMTKYHVNFMGGDLGKDLTQAWAVAMALGVEDKVTVPLFEGVQKTQTIRSASDIRDVFINAGIKGEEYDAAWNSFVVKSLVAQQEKAAADVQLRGVPAMFVNGKYQLNPQGMDTSNMDVFVQQYADTVKYLSEKK
B1: the “restoration of motility (swarming)” value in data set [3] is on record as “can rescue the swarming”. For the same molecule, in data set [4] (Table 1, ref [6], [14]), the “E°’ (redox potential)” value was -122 mV. Also, the Tm oxidized in data set [4] (Table 1, ref [6], [14]) is recorded as 341 K; in data set [4] (with spread, ref [7]) it was 341.7 ± 0.2 K; in data set [4] (ref [13]), 341 K. In addition, the Tm reduced in data set [4] (Table 1, ref [6], [14]) is 350 K; in data set [4] (with spread, ref [7]) it was 350.9 ± 0.2 K; in data set [4] (ref [13]), 350 K. In addition, the “pKa “Cys30”” value in data set [4] (Table 1 and comparison, ref [6], [14]) was 3.3. Also, the “pKa of nucleophilic cysteine” value in data set [4] (introduction, ref [9]) was 3.3; in data set [4] (ref [7]) it was 3.3. Moreover, the redox potential in data set [4] (ref [9]) was -122 mV. Also, the insulin reductase activity result in data set [5] was “weak disulfide reductants; also recorded: weak insulin reductase activity”. The “dithiol oxidation signal without EcDsbB” value in data set [6] is given as “no increase in signal”. Also, the “insulin disulfide reductase activity” value in data set [7] is reported as “weak insulin reductase activity”.
